# Laboratory results reported in patent US20090215081.
# T1: FLAG-TCF4, full length human TCF4 expressed from pFLAG-CMV-4, Q9NQB0
# T1 chain: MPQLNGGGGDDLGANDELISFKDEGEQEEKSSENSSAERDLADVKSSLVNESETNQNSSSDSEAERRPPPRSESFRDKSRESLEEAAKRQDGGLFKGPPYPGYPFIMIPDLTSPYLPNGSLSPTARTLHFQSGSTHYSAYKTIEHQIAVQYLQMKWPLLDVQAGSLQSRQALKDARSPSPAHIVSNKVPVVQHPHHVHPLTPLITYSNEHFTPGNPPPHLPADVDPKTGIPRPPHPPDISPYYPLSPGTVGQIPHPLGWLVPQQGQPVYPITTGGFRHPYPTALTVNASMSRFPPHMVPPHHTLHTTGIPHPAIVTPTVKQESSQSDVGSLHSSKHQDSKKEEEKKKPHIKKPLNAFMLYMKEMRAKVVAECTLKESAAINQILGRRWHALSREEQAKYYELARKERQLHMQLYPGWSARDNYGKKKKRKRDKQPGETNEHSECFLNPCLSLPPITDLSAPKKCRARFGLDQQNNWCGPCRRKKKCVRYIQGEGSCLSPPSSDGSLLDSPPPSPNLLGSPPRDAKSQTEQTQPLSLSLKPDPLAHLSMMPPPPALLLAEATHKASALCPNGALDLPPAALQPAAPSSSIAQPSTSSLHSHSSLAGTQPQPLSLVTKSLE
# B1: HA-TNIK K54R, ATP binding site mutant of human TNIK expressed from pCIneo-HA-TNIK K54R (protein)
# chain: MASDSPARSLDEIDLSALRDPAGIFELVELVGNGTYGQVYKGRHVKTGQLAAIRVMDVTGDEEEEIKQEINMLKKYSHHRNIATYYGAFIKKNPPGMDDQLWLVMEFCGAGSVTDLIKNTKGNTLKEEWIAYICREILRGLSHLHQHKVIHRDIKGQNVLLTENAEVKLVDFGVSAQLDRTVGRRNTFIGTPYWMAPEVIACDENPDATYDFKSDLWSLGITAIEMAEGAPPLCDMHPMRALFLIPRNPAPRLKSKKWSKKFQSFIESCLVKNHSQRPATEQLMKHPFIRDQPNERQVRIQLKDHIDRTKKKRGEKDETEYEYSGSEEEEEENDSGEPSSILNLPGESTLRRDFLRLQLANKERSEALRRQQLEQQQRENEEHKRQLLAERQKRIEEQKEQRRRLEEQQRREKELRKQQEREQRRHYEEQMRREEERRRAEHEQEYIRRQLEEEQRQLEILQQQLLHEQALLLEYKRKQLEEQRQAERLQRQLKQERDYLVSLQHQRQEQRPVEKKPLYHYKEGMSPSEKPAWAKEVEERSRLNRQSSPAMPHKVANRISDPNLPPRSESFSISGVQPARTPPMLRPVDPQIPHLVAVKSQGPALTASQSVHEQPTKGLSGFQEALNVTSHRVEMPRQNSDPTSENPPLPTRIEKFDRSSWLRQEEDIPPKVPQRTTSISPALARKNSPGNGSALGPRLGSQPIRASNPDLRRTEPILESPLQRTSSGSSSSSSTPSSQPSSQGGSQPGSQAGSSERTRVRANSKSEGSPVLPHEPAKVKPEESRDITRPSRPASYKKAIDEDLTALAKELRELRIEETNRPMKKVTDYSSSSEESESSEEEEEDGESETHDGTVAVSDIPRLIPTGAPGSNEQYNVGMVGTHGLETSHADSFSGSISREGTLMIRETSGEKKRSGHSDSNGFAGHINLPDLVQQSHSPAGTPTEGLGRVSTHSQEMDSGTEYGMGSSTKASFTPFVDPRVYQTSPTDEDEEDEESSAAALFTSELLRQEQAKLNEARKISVVNVNPTNIRPHSDTPEIRKYKKRFNSEILCAALWGVNLLVGTENGLMLLDRSGQGKVYNLINRRRFQQMDVLEGLNVLVTISGKKNKLRVYYLSWLRNRILHNDPEVEKKQGWITVGDLEGCIHYKVVKYERIKFLVIALKNAVEIYAWAPKPYHKFMAFKSFADLQHKPLLVDLTVEEGQRLKVIFGSHTGFHVIDVDSGNSYDIYIPSHIQGNITPHAIVILPKTDGMEMLVCYEDEGVYVNTYGRITKDVVLQWGEMPTSVAYIHSNQIMGWGEKAIEIRSVETGHLDGVFMHKRAQRLKFLCERNDKVFFASVRSGGSSQVFFMTLNRNSMMNW
# Biological target: T1, FLAG-TCF4, full length human TCF4 …
protein,measurement,value
B1,"serine phosphorylation of TCF4 (immunoprecipitation with anti-TCF4, immunoblot with anti-phospho-serine antibody)",significant serine phosphorylation was not observed compared with control
